# Assay results published in publication PMC10659161, “Cryo-electron tomography reveals the binding and release states of the major adhesion complex from Mycoplasma genitalium” (PLOS Pathogens, 2023).
# T1: P140 (Mycoplasma genitalium, UniProt P20796 59-1444)
# T1 construct: P140 of the nap particle adhesion complex, Mycoplasma genitalium G37; endogenous and not truncated, with stalk, transmembrane helix and intracellular region (residues up to 1444 are spoken of); The same endogenous protein was also studied in the nap particle purified from M. genitalium; that purification is described in an earlier publication of the authors; also called P140 adhesin of the nap …
# T1 sequence: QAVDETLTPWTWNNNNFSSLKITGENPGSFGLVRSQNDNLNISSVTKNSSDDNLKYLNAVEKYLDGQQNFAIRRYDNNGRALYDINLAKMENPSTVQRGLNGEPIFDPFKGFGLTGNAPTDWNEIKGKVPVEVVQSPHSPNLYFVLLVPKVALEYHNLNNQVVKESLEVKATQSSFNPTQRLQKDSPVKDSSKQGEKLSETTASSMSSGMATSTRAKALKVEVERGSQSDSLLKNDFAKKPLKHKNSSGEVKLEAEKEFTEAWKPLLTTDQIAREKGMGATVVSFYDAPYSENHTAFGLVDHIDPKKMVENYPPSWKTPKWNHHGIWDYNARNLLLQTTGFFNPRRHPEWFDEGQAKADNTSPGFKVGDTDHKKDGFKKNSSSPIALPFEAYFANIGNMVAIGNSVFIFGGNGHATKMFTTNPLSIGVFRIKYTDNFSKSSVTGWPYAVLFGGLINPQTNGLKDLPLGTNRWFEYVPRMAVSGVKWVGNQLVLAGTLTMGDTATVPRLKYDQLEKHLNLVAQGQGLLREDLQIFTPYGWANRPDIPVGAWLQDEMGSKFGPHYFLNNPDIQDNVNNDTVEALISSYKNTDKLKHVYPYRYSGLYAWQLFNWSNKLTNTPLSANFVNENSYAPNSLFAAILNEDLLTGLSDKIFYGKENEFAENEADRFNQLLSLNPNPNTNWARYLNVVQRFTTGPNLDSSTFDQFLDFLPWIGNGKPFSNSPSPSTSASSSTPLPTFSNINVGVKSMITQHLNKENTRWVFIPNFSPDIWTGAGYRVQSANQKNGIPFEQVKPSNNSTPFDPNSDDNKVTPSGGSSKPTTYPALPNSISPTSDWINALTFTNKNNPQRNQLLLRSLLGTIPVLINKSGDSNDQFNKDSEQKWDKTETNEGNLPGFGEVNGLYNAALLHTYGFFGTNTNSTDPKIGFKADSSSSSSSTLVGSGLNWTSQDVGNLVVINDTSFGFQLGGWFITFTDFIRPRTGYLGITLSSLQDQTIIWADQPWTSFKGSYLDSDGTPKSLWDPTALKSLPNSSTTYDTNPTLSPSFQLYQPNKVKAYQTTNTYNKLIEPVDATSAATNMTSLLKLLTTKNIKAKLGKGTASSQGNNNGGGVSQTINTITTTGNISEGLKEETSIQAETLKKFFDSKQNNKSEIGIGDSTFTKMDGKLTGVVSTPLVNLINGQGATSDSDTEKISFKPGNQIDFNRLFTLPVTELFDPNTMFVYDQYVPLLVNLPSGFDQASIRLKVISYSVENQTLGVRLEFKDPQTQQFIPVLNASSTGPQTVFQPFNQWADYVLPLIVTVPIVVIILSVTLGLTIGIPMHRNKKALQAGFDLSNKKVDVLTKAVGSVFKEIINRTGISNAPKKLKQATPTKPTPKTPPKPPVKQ
# Biological target: T1, P140
# Assay: cryo-EM structure; single-particle cryo-EM of the isolated nap particle purified from M. genitalium, with and without soaking in 10 mM 6'-SL (75 mM Tris-HCl pH 7.4, 400 mM NaCl, 5% glycerol, 0.5% octylglucoside); heterodimer classes at 3.3 and 3.7 Å, tetramer classes at 8.3, 7.3 and 7.7 Å
# Details: both partners purified
binder,measurement,value
"P110 (natural protein, P110 of the nap particle adhesion complex, Mycoplasma genitalium G37; endogenous and not truncated, with stalk, transmembrane helix and intracellular region (residues up to 1053 are spoken of); The same endogenous protein was also studied in the nap particle purified from M. genitalium; that purification is described in an earlier publication of the authors; also called P110 adhesin of the nap …) NTFLVKEDSKNVTAYTPFATPITDSKSDLVSLAQLDSSYQIADQTIHNTNLFVLFKSRDVKVKYESSGSNNISFDSTSQGEKPSYVVEFTNSTNIGIKWTMVKKYQLDVPNVSSDMNQVLKNLILEQPLTKYTLNSSLAKEKGKTQREVHLGSGQANQWTSQRNQHDLNNNPSPNASTGFKLTTGNAYRKLSESWPIYEPIDGTKQGKGKDSSGWSSTEENEAKNDAPSVSGGGSSSGTFNKYLNTKQALESIGILFDDQTPRNVITQLYYASTSKLAVTNNHIVVMGNSFLPSMWYWVVERSAQENASNKPTWFANTNLDWGEDKQKQFVENQLGYKETTSTNSHNFHSKSFTQPAYLISGIDSVNDQIIFSGFKAGSVGYDSSSSSSSSSSSSTKDQALAWSTTTSLDSKTGYKDLVTNDTGLNGPINGSFSIQDTFSFVVPYSGNHTNNGTTGPIKTAYPVKKDQKSTVKINSLINATPLNSYGDEGIGVFDALGLNYNFKSNQERLPSRTDQIFVYGIVSPNELRSAKSSADSTGSDTKVNWSNTQSRYLPVPYNYSEGIIDADGFKRPENRGASVTTFSGLKSIAPDGFANSIANFSVGLKAGIDPNPVMSGKKANYGAVVLTRGGVVRLNFNPGNDSLLSTTDNNIAPISFSFTPFTAAESAVDLTTFKEVTYNQESGLWSYIFDSSLKPSHDGKQTPVTDNMGFSVITVSRTGIELNQDQATTTLDVAPSALAVQSGIQSTTQTLTGVLPLSEEFSAVIAKDSDQNKIDIYKNNNGLFEIDTQLSNSVATNNGGLAPSYTENRVDAWGKVEFADNSVLQARNLVDKTVDEIINTPEILNSFFRFTPAFEDQKATLVATKQSDTSLSVSPRIQFLDGNFYDLNSTIAGVPLNIGFPSRVFAGFAALPAWVIPVSVGSSVGILFILLVLGLGIGIPMYRVRKLQDASFVNVFKKVDTLTTAVGSVYKKIITQTGVVKKAPSALKAANPSVKKPAAFLKPPVQPPSKPEGEQKAVEVKSEETKS",binding result,binds
